Experiment: soluble on expression in E. coli; label from the status in PepcDB or PDB records

| Sequence | soluble on expression in E. coli |
| --- | --- |
| MSLKVSVIIPTYNERENLEELFSRIDNALQGLNYEIVVVDDDSPDRTWEKAQELSSKYPVKVIRRTKEKGLSSAVIRGFKEASGDVFVVMDADLQHPPEVIPKLIEAIKNGSDIAIGSRYVKGGKVENWPFYRKLISKGAIMVGRIALPKIRDIKDPVSGFFALRKEVVEGVELNPIGFKILMEILIKGKYSKVVEVPFTFGIRARGESKLKGKTIFEYLRHIYRLMKWEGEIDREGHHHHHH | soluble |
| MSTSLTIRLVAEADWPALHALDQIIWTKKNTPAEIQPLSLAAYQEKMKDETIFVAISGQQLAGFIEVHPPTSLAAHQKQWLLSIGVSPDFQDQGIGGSLLSYIKDMAEISGIHKLSLRVMATNQEAIRFYEKHGFVQEAHFKEEFYINGHYCDDYQYAYFIEK | soluble |
| MAKALEQPFDVANIPGPKMATLLEKGKPVANMIKKAKRPLLIVGPDMTDEMFERVKKFVEKDITVVATGSAITRFIDAGLGEKVNYAVLHELTQFLLDPDWKGFDGQGNYDLVLMLGSIYYHGSQMLAAIKNFAPHIRALAIDRYYHPNADMSFGNLWKKEEDYLKLLDEILAEL | soluble |
| MQGLESLTYYTENYPPLNFAKEDGKPAGIAVDLLLEAAAAVNVTLNLDQIFVQPWPRSYRSALLKQDGVLFSTTRTTHRENLFNWVGPIADIKVVVLARKSSQIKVNDPIELGNYRIGVIRDDIGEQQLLQLEHHHHHH | not soluble |
| MTDTARKIVAQPLSAAAFAPFGQVIDTAQVASRPMNDGRARRFHDLAEIEVIGNGARVVVGLVEAEPYAVPLWLNLVERHPLGAQAFVPLNAAPFLVVVCPDESGKPGAPQAFITAPHQGVCYARNTWHSVLTPFGAAQDFVVIDRGGPGVNLEEHLFDEPWIVHLSTSGLEHHHHHH | soluble |

Reference: the DeepSol protein solubility set
